{
  "source": "patent US20230002480A1",
  "experiment_in_all_cases": "cell-based or functional assay",
  "key": {"[1]": {"target": "HIV-1 Env of pseudovirus 0815.v3.c3 (HIV-1)"}, "[2]": {"target": "HIV-1 Env of pseudovirus 1056_10_TA11_1826 (HIV-1)"}, "[3]": {"target": "HIV-1 Env of pseudovirus 191084 B7-19 (HIV-1)"}, "[4]": {"target": "HIV-1 Env of pseudovirus 246F C1G (HIV-1)"}, "[5]": {"target": "HIV-1 Env of pseudovirus 3301.v1.c24 (HIV-1)"}, "[6]": {"target": "HIV-1 Env of pseudovirus 6540.v4.c1 (HIV-1)"}, "[7]": {"target": "HIV-1 Env of pseudovirus 6811.v7.c18 (HIV-1)"}, "[8]": {"target": "HIV-1 Env of pseudovirus 7030102001E5(Rev-) (HIV-1)"}, "[9]": {"target": "HIV-1 Env of pseudovirus 9004SS_A3_4 (HIV-1)"}, "[10]": {"target": "HIV-1 Env of pseudovirus 928-28 (HIV-1)"}, "[11]": {"target": "HIV-1 Env of pseudovirus AC10.0.29 (HIV-1)"}, "[12]": {"target": "HIV-1 Env of pseudovirus CAP210.2.00.E8 (HIV-1)"}, "[13]": {"target": "HIV-1 Env of pseudovirus CNE20 (HIV-1)"}, "[14]": {"target": "HIV-1 Env of pseudovirus CNE21 (HIV-1)"}, "[15]": {"target": "HIV-1 Env of pseudovirus CNE5 (HIV-1)"}, "[16]": {"target": "HIV-1 Env of pseudovirus CNE52 (HIV-1)"}, "[17]": {"target": "HIV-1 Env of pseudovirus Ce0393_C3 (HIV-1)"}, "[18]": {"target": "HIV-1 Env of pseudovirus Ce0682_E4 (HIV-1)"}, "[19]": {"target": "HIV-1 Env of pseudovirus Ce2060_G9 (HIV-1)"}, "[20]": {"target": "HIV-1 Env of pseudovirus Ce704809221_1B3 (HIV-1)"}, "[21]": {"target": "HIV-1 Env of pseudovirus Du172.17 (HIV-1)"}, "[22]": {"target": "HIV-1 Env of pseudovirus Q461.e2 (HIV-1)"}, "[23]": {"target": "HIV-1 Env of pseudovirus T250-4 (HIV-1)"}, "[24]": {"target": "HIV-1 Env of pseudovirus T251-18 (HIV-1)"}, "[25]": {"target": "HIV-1 Env of pseudovirus T255-34 (HIV-1)"}, "[26]": {"target": "HIV-1 Env of pseudovirus T257-31 (HIV-1)"}, "[27]": {"target": "HIV-1 Env of pseudovirus THRO4156.18 (HIV-1)"}, "[28]": {"target": "HIV-1 Env of pseudovirus TRJO4551.58 (HIV-1)"}, "[29]": {"target": "HIV-1 Env of pseudovirus WITO4160.33 (HIV-1)"}, "[30]": {"target": "HIV-1 Env of pseudovirus X1193_c1 (HIV-1)"}, "[31]": {"target": "HIV-1 Env of pseudovirus X2088_c9 (HIV-1)"}, "[32]": {"target": "HIV-1 Env of pseudovirus X2131_C1_B5 (HIV-1)"}, "[33]": {"target": "HIV-1 Env of pseudovirus ZM135M.PL10a (HIV-1)"}, "[34]": {"target": "HIV-1 Env of pseudovirus ZM197M.PB7 (HIV-1)"}, "[35]": {"target": "HIV-1 Env of pseudovirus ZM214M.PL15 (HIV-1)"}, "[36]": {"target": "HIV-1 Env of pseudovirus ZM249M.PL1 (HIV-1)"}},
  "data": [
    {"substance": "PGT145 (antibody)", "values": [
      {"measurement": "IC50, titer in TZM.bl cells", "setting": "[1]", "result": "> 50", "unit": "µg/mL"},
      {"measurement": "IC80, titer in TZM.bl cells", "setting": "[1]", "result": "> 50", "unit": "µg/mL"},
      {"measurement": "IC50", "setting": "[2]", "result": 0.23, "unit": "µg/mL"},
      {"measurement": "IC80", "setting": "[2]", "result": 0.938, "unit": "µg/mL"},
      {"measurement": "IC50", "setting": "[3]", "result": 0.028, "unit": "µg/mL"},
      {"measurement": "IC80", "setting": "[3]", "result": 0.345, "unit": "µg/mL"},
      {"measurement": "IC50", "setting": "[4]", "result": "> 50", "unit": "µg/mL"},
      {"measurement": "IC80", "setting": "[4]", "result": "> 50", "unit": "µg/mL"},
      {"measurement": "IC50, titer in TZM.bl cells", "setting": "[5]", "result": 0.219, "unit": "µg/mL"},
      {"measurement": "IC80, titer in TZM.bl cells", "setting": "[5]", "result": 4.22, "unit": "µg/mL"},
      {"measurement": "IC50, titer in TZM.bl cells", "setting": "[6]", "result": 0.08, "unit": "µg/mL"},
      {"measurement": "IC80, titer in TZM.bl cells", "setting": "[6]", "result": 5.09, "unit": "µg/mL"},
      {"measurement": "IC50, titer in TZM.bl cells", "setting": "[7]", "result": "> 50", "unit": "µg/mL"},
      {"measurement": "IC80, titer in TZM.bl cells", "setting": "[7]", "result": "> 50", "unit": "µg/mL"},
      {"measurement": "IC50", "setting": "[8]", "result": "> 50", "unit": "µg/mL"},
      {"measurement": "IC80", "setting": "[8]", "result": "> 50", "unit": "µg/mL"},
      {"measurement": "IC50", "setting": "[9]", "result": 0.018, "unit": "µg/mL"},
      {"measurement": "IC80", "setting": "[9]", "result": 0.419, "unit": "µg/mL"},
      {"measurement": "IC50", "setting": "[10]", "result": "> 50", "unit": "µg/mL"},
      {"measurement": "IC80", "setting": "[10]", "result": "> 50", "unit": "µg/mL"},
      {"measurement": "IC50", "setting": "[11]", "result": 0.01, "unit": "µg/mL"},
      {"measurement": "IC80", "setting": "[11]", "result": 0.025, "unit": "µg/mL"},
      {"measurement": "IC50", "setting": "[12]", "result": 37.8, "unit": "µg/mL"},
      {"measurement": "IC80", "setting": "[12]", "result": "> 50", "unit": "µg/mL"},
      {"measurement": "IC50", "setting": "[13]", "result": 0.318, "unit": "µg/mL"},
      {"measurement": "IC80", "setting": "[13]", "result": 6.97, "unit": "µg/mL"},
      {"measurement": "IC50", "setting": "[14]", "result": "< 0.001", "unit": "µg/mL"},
      {"measurement": "IC80", "setting": "[14]", "result": 0.009, "unit": "µg/mL"},
      {"measurement": "IC50, titer in TZM.bl cells", "setting": "[15]", "result": 0.001, "unit": "µg/mL"},
      {"measurement": "IC80, titer in TZM.bl cells", "setting": "[15]", "result": 0.013, "unit": "µg/mL"},
      {"measurement": "IC50", "setting": "[16]", "result": 0.02, "unit": "µg/mL"},
      {"measurement": "IC80", "setting": "[16]", "result": 0.091, "unit": "µg/mL"},
      {"measurement": "IC50", "setting": "[17]", "result": 0.112, "unit": "µg/mL"},
      {"measurement": "IC80", "setting": "[17]", "result": 1.23, "unit": "µg/mL"},
      {"measurement": "IC50", "setting": "[18]", "result": 33.6, "unit": "µg/mL"},
      {"measurement": "IC80", "setting": "[18]", "result": "> 50", "unit": "µg/mL"},
      {"measurement": "IC50", "setting": "[19]", "result": 0.016, "unit": "µg/mL"},
      {"measurement": "IC80", "setting": "[19]", "result": 0.205, "unit": "µg/mL"},
      {"measurement": "IC50", "setting": "[20]", "result": 0.102, "unit": "µg/mL"},
      {"measurement": "IC80", "setting": "[20]", "result": 0.71, "unit": "µg/mL"},
      {"measurement": "IC50", "setting": "[21]", "result": "> 50", "unit": "µg/mL"},
      {"measurement": "IC80", "setting": "[21]", "result": "> 50", "unit": "µg/mL"},
      {"measurement": "IC50", "setting": "[22]", "result": 7.8, "unit": "µg/mL"},
      {"measurement": "IC80", "setting": "[22]", "result": "> 50", "unit": "µg/mL"},
      {"measurement": "IC50", "setting": "[23]", "result": 0.002, "unit": "µg/mL"},
      {"measurement": "IC80", "setting": "[23]", "result": 0.039, "unit": "µg/mL"},
      {"measurement": "IC50, titer in TZM.bl cells", "setting": "[24]", "result": 0.351, "unit": "µg/mL"},
      {"measurement": "IC80, titer in TZM.bl cells", "setting": "[24]", "result": 1.39, "unit": "µg/mL"},
      {"measurement": "IC50, titer in TZM.bl cells", "setting": "[25]", "result": "> 50", "unit": "µg/mL"},
      {"measurement": "IC80, titer in TZM.bl cells", "setting": "[25]", "result": "> 50", "unit": "µg/mL"},
      {"measurement": "IC50", "setting": "[26]", "result": 5.18, "unit": "µg/mL"},
      {"measurement": "IC80", "setting": "[26]", "result": "> 50", "unit": "µg/mL"},
      {"measurement": "IC50", "setting": "[27]", "result": 0.01, "unit": "µg/mL"},
      {"measurement": "IC80", "setting": "[27]", "result": 0.029, "unit": "µg/mL"},
      {"measurement": "IC50", "setting": "[28]", "result": "> 50", "unit": "µg/mL"},
      {"measurement": "IC80", "setting": "[28]", "result": "> 50", "unit": "µg/mL"},
      {"measurement": "IC50", "setting": "[29]", "result": "< 0.001", "unit": "µg/mL"},
      {"measurement": "IC80", "setting": "[29]", "result": 0.001, "unit": "µg/mL"},
      {"measurement": "IC50, titer in TZM.bl cells", "setting": "[30]", "result": 0.013, "unit": "µg/mL"},
      {"measurement": "IC80, titer in TZM.bl cells", "setting": "[30]", "result": 0.091, "unit": "µg/mL"},
      {"measurement": "IC50, titer in TZM.bl cells", "setting": "[31]", "result": "> 50", "unit": "µg/mL"},
      {"measurement": "IC80, titer in TZM.bl cells", "setting": "[31]", "result": "> 50", "unit": "µg/mL"},
      {"measurement": "IC50, titer in TZM.bl cells", "setting": "[32]", "result": 0.018, "unit": "µg/mL"},
      {"measurement": "IC80, titer in TZM.bl cells", "setting": "[32]", "result": 0.065, "unit": "µg/mL"},
      {"measurement": "IC50", "setting": "[33]", "result": "> 50", "unit": "µg/mL"},
      {"measurement": "IC80", "setting": "[33]", "result": "> 50", "unit": "µg/mL"},
      {"measurement": "IC50", "setting": "[34]", "result": 0.628, "unit": "µg/mL"},
      {"measurement": "IC80", "setting": "[34]", "result": 5.24, "unit": "µg/mL"},
      {"measurement": "IC50", "setting": "[35]", "result": "> 50", "unit": "µg/mL"},
      {"measurement": "IC80", "setting": "[35]", "result": "> 50", "unit": "µg/mL"},
      {"measurement": "IC50", "setting": "[36]", "result": 1.44, "unit": "µg/mL"},
      {"measurement": "IC80", "setting": "[36]", "result": "> 50", "unit": "µg/mL"}
    ]}
  ]
}
